Patent US20130273026A1, “COMPOSITION AND METHOD FOR MODULATING INFLAMMATORY MOLECULES WITH AMYLASE” (INTEGRATIVE ENZYMATICS, INC., priority 2012, published 2013)
Where a name gives a salt, the structure may show the parent alone.

What was measured:
BKS.Cg-Dock7m mice [1] = experiment: Urine Protein Urea/Creatinine ratio; assay type: in vivo; details: for Nephroprotective effect: from Protein Urea to Creatinine ratio
Description: (§1) BKS.Cg-Dock7m mice were treated with control and an Amylase compound according to an embodiment of the present invention. In the absence of treatment, the BKS.Cg-Dock7m mice are homozygous for the diabetes spontaneous mutation (Lepr^db) and become obese at approximately three to four weeks of age. […] At the beginning of the animal trial, the test animals were obese, severely hyperinsulemic and hyperglycemic. After 28 consecutive days of dosing, the animals were euthanized and tissue analyzed. Compounds described herein were tested against the positive control of Metformin hydrochloride (“Metformin”)
(§2) 1× (used synonymously with TV1) and 3× (used synonymously with TV2) doses of human alpha-Amylase enzyme (referred to herein as Test Compound 1) were determined to be 80 Units/Liter of blood volume and 240 Units/Liter of blood volume respectively. Animals were manually restrained and administered a target volume of 300 μL of phosphate buffered saline (PBS) (vehicle), by IP injection, once per day, on Days 1-28. Actual dose volumes changed throughout the study and ranged from 300 to 310 μL. Endpoints include daily clinical observations and body weights. Creatinine, insulin, Protein Urea/Creatinine levels, clinical pathology and gross pathology at necropsy were also obtained. The mice were euthanized and necropsied on Day 28.
Referring now to FIG. 11, Protein Urea/Creatinine Levels are measured and shown. Creatinine levels are directly related to muscle mass in mice and so higher Creatinine is correlated with higher muscle mass. A healthy Protein Urea to Creatinine level is 1. Higher levels imply kidney damage. […] Optimal Protein Urea: Creatinine is 1.

BKS.Cg-Dock7m mice [2] = experiment: Body weight loss in diabetic obese mice; assay type: in vivo
Description: as §1
(§3) Animals were manually restrained and administered Metformin by oral gavage using a disposable gavage needle. The target dose was 5 mL/kg, and actual dose volumes ranged from 190 to 260 μL/animal.
(§4) Amylase was purchased from Abcam (product ID: ab77861) at a dilution of 340 Units/mL. Each animal was treated with Amylase to achieve a dilution of 80 Units/L of blood. The test compound was diluted in phosphate buffer saline (PBS) and each day the test animals were injected with 300 uL of the Amylase-PBS solution. For every 299.4 uL of PBS, 0.6 uL of Amylase was used to achieve a concentration of 80 Units/Liter assuming a body weight of 45 g. The aliquots were stored at −80 C.
Amylase was purchased from Abcam (product ID: ab77861) at a dilution of 340 Units/mL. Each animal was treated with Amylase to achieve a dilution of 240 Units/L of blood. The test compound was diluted in phosphate buffer saline (PBS) and each day the test animals were injected with 300 uL of the Amylase-PBS solution. For every 298.3 uL of PBS, 1.7 uL of Amylase was used to achieve a concentration of […] assuming a body weight of 45 g. The aliquots were stored at −80 degrees C.
as §2
Body weights were measured prior to the study for randomization. Additional weekly body weights were collected throughout the study. We also were interested in weight loss for the animals for various treatment regimens. Referring now to Table 1 weight loss data as a percent weight loss with the reference being the weight before any treatment is illustrated for each test group. […] As with the insulin data, there is a dose dependent trend between 1× and 3×. The higher dose of Test Compound 1 outperforms metformin.

BKS.Cg-Dock7m mice [3] = experiment: Serum insulin ELISA in diabetic obese mice after 28 days of dosing; assay type: in vivo; details: for Serum insulin levels compared to vehicle control: at necropsy after 28 consecutive days, Test Compound 1 at 1× or 3× IP, Metformin oral gavage
Description: as §1, §3, §4
Amylase was purchased from Abcam (product ID: ab77861) at a dilution of 340 Units/mL. Each animal was treated with Amylase to achieve a dilution of 240 Units/L of blood. […]
1× (used synonymously with TV1) and 3× (used synonymously with TV2) doses of human alpha-Amylase enzyme (referred to herein as Test Compound 1) were determined to be 80 Units/Liter of blood volume and 240 Units/Liter of blood volume respectively. […]
Referring now to FIG. 9, insulin values were measured in serum from four animals from each treatment group at the time of necropsy following 28 consecutive days of dosing with Control (metformin), Test Compound 1 (SEQ ID NO 1), or vehicle alone. […] The processed plates were read using a Molecular Devices VersaMax plate reader.

Mast cells = experiment: Histamine ELISA of IgE/anti-IgE-induced mast cell degranulation; assay type: cell-based; details: for Histamine release (ELISA): 1× (100 Units/L) and 10× (1000 Units/L) Amylase, IgE + anti-IgE
Description: Referring now to FIG. 1, Mast cells were treated with IgE, anti-IgE and varying doses of alpha-Amylase in a medium that would permit binding. In this experiment, Mast cells were grown to confluence, harvested and resuspended in 8 ml PBS and a 3 ml aliquot was plated in triplicate. 0.29 ml (100 Units) of Amylase was added to 0.7 mL PBS bringing the total volume to 1 mL. 3 μL was used in the 1× Amylase dose and 30 μL was used in the 10× Amylase dose. 1 set of triplicates was incubated with 1× Amylase (100 Units/L) and the second set with 10× Amylase (1000 Units/L). After 10 minutes, 250 μL of IgE was added, and then 200 μL of anti-IgE. The cells were incubated at 37 degrees Celsius during this time. 50 μL was taken at 1 hour, 2.5 hours and 4 hours and subjected to histamine level analysis via ELISA. A control set was co-incubated with PBS.
Anti-IgE when added to IgE-incubated Mast cells causes degranulation. Histamine release occurs during degranulation. Measurements were taken from all three subsets at 1 hour, 2.5 hours and 4 hours and subjected to analysis of histamine levels by ELISA from Oxford Biolabs. FIG. 1 is a graph of the results of an ELISA in which histamine levels are measured. Higher absorbance rates correlate to lower levels of Histamine.
Degranulation based upon the Immunoglobulin-E (IgE)-Anti-IgE reaction is well documented in the literature. Histamine levels were detected by an ELISA kit and served as a marker for degranulation. […] This implies that cellular degranulation was prevented in a time and dose-dependent manner by the addition of Amylase.

BKS.Cg-Dock7m mice [4] = experiment: Urine creatinine vs percentage of total weight loss; assay type: in vivo; details: 1× dose
Description: as §1
as §2, with “Creatinine, insulin, Protein Urea/Creatinine levels, clinical pathology and gross pathology at necropsy were also obtained. The mice were euthanized and necropsied on Day 28.” left out
The source of the weight loss, (whether fat or muscle) is physiologically critical. […] Referring now to FIG. 10, to quantify the source of the weight loss, we examined urine creatinine levels in the test animals. […]

IgE = experiment: Co-immunoprecipitation of Amylase and IgE; assay type: binding
Description: Referring now to FIG. 3, an immunoblot is shown having samples in lanes 1-8. The samples are prepared as follows. 10 μg of Amylase was mixed with 1 μg of IgE and incubated overnight at 4° C. and then for one hour at 37° C. Anti-Amylase antibody was used for immunoprecipitation. Anti-IgE antibody was used for immunoblotting. BSA was used as a competitive binding control. A sample with no IgE and […] of BSA+10 microgram of Amylase (lane 2) was used as negative control for immunoblotting. (Lanes 3 and 4 represent 0.5 μg BSA, lanes 5 and 6 represent 0.5 μg BSA and lanes 7 and 8 represent 0.05 μg BSA). After immunoprecipitation, pellets were dissolved in 45 microliters of Laemmli sample buffer and 15 microliters were loaded on the gel. 1 microgram of IgE was used as positive control (lane 1).
Referring now to FIG. 2, an immunoblot is shown having samples in lanes 1-8. The samples are prepared as follows.

[5] = Metformin positive control, oral gavage
[6] = 1X dose (80 Units/Liter of blood volume) IP daily
[7] = 3X dose (240 Units/Liter of blood volume) IP daily

For `CN(C)C(=N)N=C(N)N` [Metformin, Metformin hydrochloride, reference compound], the Nephroprotective effect (BKS.Cg-Dock7m mice [1]) was “nephroprotective”, the “Body Weight % Lost, % Weight loss n = 4” value (BKS.Cg-Dock7m mice [2]; [5]) was 7% and the “Body Weight % Lost, % Weight loss n = 6” value (BKS.Cg-Dock7m mice [2]; [5]) was 6.9%. The “Body Weight % Lost, % Weight loss raw” value (BKS.Cg-Dock7m mice [2]; [5]) was 7.4% and the “Serum insulin levels compared to vehicle control” value (BKS.Cg-Dock7m mice [3]) was “moderate decreases in serum insulin levels compared to vehicle control animals”.

B1: Test Compound 1: human alpha-Amylase enzyme (SEQ ID NO 1, pancreatic Amylase alpha 2A), purchased from Abcam (product ID: ab77861) (protein)
chain: QYSPNTQQGRTSIVHLFEWRWVDIALECERYLAPKGFGGVQVSPPNENVAIYNPFRPWWERYQPVSYKLCTRSGNEDEFRNMVTRCNNVGVRIYVDAVINHMCGNAVSAGTSSTCGSYFNPGSRDFPAVPYSGWDFNDGKCKTGSGDIENYNDATQVRDCRLTGLLDLALEKDYVRSKIAEYMNHLIDIGVAGFRLDASKHMWPGDIKAILDKLHNLNSNWFPAGSKPFIYQEVIDLGGEPIKSSDYFGNGRVTEFKYGAKLGTVIRKWNGEKMSYLKNWGEGWGFVPSDRALVFVDNHDNQRGHGAGGASILTFWDARLYKMAVGFMLAHPYGFTRVMSSYRWPRQFQNGNDVNDWVGPPNNNGVIKEVTINPDTTCGNDWVCEHRWRQIRNMVIFRNVVDGQPFTNWYDNGSNQVAFGRGNRGFIVFNNDDWSFSLTLQTGLPAGTYCDVISGDKINGNCTGIKIYVSDDGKAHFSISNSAEDPFIAIHAESKL
modifications: homo sapien
For B1, the “Histamine release (ELISA)” value (Mast cells; 1 hour, vs PBS control) was “the levels of Histamine released in the 1× and 10× doses were the same, with higher release in the negative control”, the “Histamine release (ELISA)” value (Mast cells; 2.5 hours) was “dose dependency with less histamine release compared to 1 hour” and the “Histamine release (ELISA)” value (Mast cells; 4 hours) was “greater histamine release in the 1× and 10× doses”. For the same molecule, the “Histamine levels as marker for degranulation” value (Mast cells; overall, samples treated with Amylase, 1 to 4 hours, 1× and 10×) was “lower in a manner that was both time and dose dependent”, the Nephroprotective effect (BKS.Cg-Dock7m mice [1]) was “nephroprotective” and the “Protein Urea to Creatinine ratio in urine” value (BKS.Cg-Dock7m mice [1]; treatment group 2 (1× dose) vs group 4 (metformin) and group 1 (vehicle)) was “lower Protein Urea to Creatinine ratio compared to urine from animals in treatment group 4 or animals in treatment group 1”. The “Source of the weight loss (fat or muscle) from urine creatinine” value (BKS.Cg-Dock7m mice [4]) was “the majority of weight lost is fat content and muscle mass is preserved”, the “Amylase co-immunoprecipitation with IgE” value (IgE; 1 μg IgE + 0.5, 5, 10 μg Amylase, anti-IgE immunoprecipitation, anti-Amylase immunoblot) was “binding of Amylase and IgE was observed to behave in a dose-dependent manner” and the “IgE co-immunoprecipitation with Amylase” value (IgE; 10 μg Amylase + 1 μg IgE, anti-Amylase immunoprecipitation, anti-IgE immunoblot, BSA as competitive binding control) was “IgE immunoprecipitated with Amylase under conditions of increasing concentrations of BSA, demonstrating little non-specific binding”. The “Body Weight % Lost, % Weight loss n = 4” value (BKS.Cg-Dock7m mice [2]; [6]) was 5%, the “Body Weight % Lost, % Weight loss n = 6” value (BKS.Cg-Dock7m mice [2]; [6]) was 5.2% and the “Body Weight % Lost, % Weight loss raw” value (BKS.Cg-Dock7m mice [2]; [6]) was 5.5%. For the same molecule, the “Weight loss compared with metformin” value (BKS.Cg-Dock7m mice [2]; 1× and 3× doses) was “dose-dependency in weight loss with our 1× of Test Compound 1 and 3× of Test Compound 1 doses outperforming metformin”, the “Body Weight % Lost, % Weight loss n = 4” value (BKS.Cg-Dock7m mice [2]; [7]) was 10% and the “Body Weight % Lost, % Weight loss n = 6” value (BKS.Cg-Dock7m mice [2]; [7]) was 8.3%. The “Body Weight % Lost, % Weight loss raw” value (BKS.Cg-Dock7m mice [2]; [7]) was 7.4%, the “Change in insulin levels” value (BKS.Cg-Dock7m mice [3]; Treatment Group 3: 3× dose (240 Units/liter of blood volume) IP, 28 days) was “did exhibit a change in insulin levels” and the “Serum insulin levels compared to vehicle control” value (BKS.Cg-Dock7m mice [3]) was “moderate decreases in serum insulin levels compared to vehicle control animals”.
